The text below walks through data of patent US20240002477A1 (UNIVERSITY OF CHICAGO, published 2024).

Test [1] addresses SARS-CoV-2 spike receptor binding domain (SARS-CoV-2, UniProt P0DTC2 319-541).
Test [2] addresses T1, SARS-CoV-2 open reading frame 8 protein (SARS-CoV-2, UniProt P0DTC8 16-121).
T1 construct: domain: Ig-like domain; also called ORF8

For test [3], the target named is T2, SARS-CoV-2 open reading frame 8 (ORF8) protein (SARS-CoV-2, UniProt P0DTC8 16-121).
T2 construct: domain: Ig-like domains; also called ORFS [sic]
T2 sequence (P0DTC8 16-121, tags left off): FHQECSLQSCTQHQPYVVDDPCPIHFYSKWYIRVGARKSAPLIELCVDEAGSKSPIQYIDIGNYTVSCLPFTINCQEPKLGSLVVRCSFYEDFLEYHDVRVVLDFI

T1 sequence (P0DTC8 16-121, tags left off): as above

B1: S564-152 (antibody, V domains shown)
VH: QVQLVESGGGVVQPGRSLRLSCAASGFTFSYYGMHWVRQAPGKGLEWVAVIWYDGSNKHYADSVKGRFTISRDNSKNTLYLQMNSLRAEDTAVYYCAKNAAPYCSGGSCYGTYFDYWGQGTLVTVSS
VL: DIQMTQSPSSLSASVGDRVTITCQASQDINNYLNWYQQKPGKAPKLLIYDASNLETGVPSRFSGSGSGTDFTFTISSLQPEDIATYYCQQYDNVPPHTFGQGTKLEIK
On to B1, for which the binding result in test [1] is recorded as “binds”.

B2: S144-1299 (antibody, V domains shown)
VH: QVQLQESGPGLVKPSETLSLTCTVSGGSISSYYWSWIRQPPGKGLEWIGYINYRGITNYNPSLKSRVTISVDMSKNQFSLKLSSVTAADTAVYSCARLAVASRGTVDYWGQGTLVTVSS
VL: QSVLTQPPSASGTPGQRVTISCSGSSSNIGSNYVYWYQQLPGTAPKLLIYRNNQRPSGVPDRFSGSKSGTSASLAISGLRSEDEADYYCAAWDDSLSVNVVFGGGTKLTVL
For the molecule B2, the binding result in test [2] is “binds”.

B3: S564-14 (antibody, V domains shown)
VH: EVQLVESGGGLVQPGGSLRLSCAASGLTFSSYWMSWARQAPGKGLEWVANIKKDGSEKYYVDSVKGRFTISRDNAKNSLYLQMNSLRVEDTAVYYCASEPPHYGGNSGAEYFQHWGQGTLVTVSS
VL: SYVLTQPPSVSVAPGKTARITCGGNNIGSKSVHWYQQRPGQAPVLVIYYDSDRPSGIPERFSGSNSGNTATLTISRVEAGDEADYYCQVWDSSSDHHYVFGTGTKVTVL
For B3, the binding result in test [1] was “binds”.

B4: S564-138 (antibody, V domains shown)
VH: QVLLVQSGAEVKKPGASVKVSCKASGYTFTGYYLHWVRQAPGQGLEWMGWINPISGGTNYAQNFQDRVTMTRDTSIITAYMELSRLRSDDTAVYYCARLAYYYDSSAYRGAFDIWGQGTMVTVSS
VL: QSALTQPASVSGSPGQSITISCTGTSSDVGGYNYVSWYQQHPGKAPKLMIYEVSNRPSGVSDRFSGSKSGNTASLTISGLQAEDEADYYCSSYTSSSTYVFGTGTKVTVL
For B4, the binding result in test [1] is listed as “binds”.

B5: S564-287 (antibody, V domains shown)
VH: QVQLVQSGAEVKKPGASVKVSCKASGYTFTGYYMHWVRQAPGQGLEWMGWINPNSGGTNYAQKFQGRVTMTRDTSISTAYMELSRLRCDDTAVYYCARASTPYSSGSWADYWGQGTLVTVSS
VL: QSALTQPASVSGSPGQSITISCTGTSSDVGGYNYVSWYQQHPGKAPKLMIYDVSNRPSGVSNRFSGSKSGNTASLTISGLQAEDEADYYCSSYASSSTWVFGGGTKLTVL
Consider B5, for which, in test [2], the binding result is on record as “binds”.

B6: S24-278 (antibody, V domains shown)
VH: QVQLVQSGAEVKKPGASVKVSCKASGYTFTGYYMHWVRQAPGQGLEWMGWINPNSGDTNYAQKFQGWVTMTRDTSLSTAYMELSRLKSDDTAVYYCARVGVGEYSGRHYYYYGMDVWGQGTTVTVSS
VL: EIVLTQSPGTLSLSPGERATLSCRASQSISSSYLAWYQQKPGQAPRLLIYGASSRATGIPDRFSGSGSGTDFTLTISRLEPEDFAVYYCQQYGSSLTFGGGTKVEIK
As to B6, in test [3], the binding result is “binds”.

B7: S24-1378 (antibody, V domains shown)
VH: EVQLVESGGGLVQPGGSLRLSCAASGFTVSSNYMSWVRQAPGKGLEWVSVIYSGGSTYYADSVKGRFTISRHNSKNTLYLQMNSLRAEDTAVYYCAREGYCTNGVCYRHAFDIWGQGTMVTVSS
VL: QTVVTQEPSFSVSPGGTVTLTCGLSSGSVSTSYYPSWYQQTPGQAPRTLIYSTNTRSSGVPDRFSGSILGNKAALTITGAQADDESDYYCVLYMGSGISVFGGGTKLTVL
For B7, the binding result in test [3] was “binds”.
